How the values were obtained:
Assay in all cases: MST
[1] = target: H3K9me2 MLA (Methyl Lysine Analog) histone H3 (UniProt P84233)
[2] = target: H3K9me1 MLA (Methyl Lysine Analog) histone H3 (UniProt P84233)
[3] = target: H3K9me3 MLA (Methyl Lysine Analog) histone H3 (UniProt P84233)

Kd [1]: 2050 nM
Kd [2]: 6140 nM
Kd [3]: 157 nM
Substance: EAP-1 chromodomain fused to GST (EAP-1chromo) (domain or fragment)
